Assay results as given in a protein production outcome set (Wang et al. 2014).

Experiment: label from the status in PepcDB records

| Sequence | protein production |
| --- | --- |
| MSAVMARRIAVVGGGVAGLMAAWWASNYGYDVVVYEADLSSLTATRVSAGIIDPTIDISLAPVALETLSLLKRLGLGLESRLLWLHERGSCRRLERLLSDKGIIERSVAGEESIRLGRYTVNLGYGEELHVINTIIVDTGEFYSLASSASNVDIVEDSVEYVGCGSVGLKRGGSREFDAIIVAAGPWTGFISGLQALSNMLRVYRCEALIIRAGGGPFAVVDDILDFYLSIHASGDGVLGNGCCVEIASPLDGYRYSGDVLDAVISRSIERLEGLGEAELITPVSAPCVVGRDARPVLGMLPGCSRVYLLAGLDGVGVTLAPVLARLVVESIATGSQEPIPPEMAASRPTSSSESVVKEPVEEC | failed |
| MSVLSALQYYFFYPSFFLTVIFPGLIFTLIFLLVTIWFERKAAAIVQLRYGPYYASKRLGGILQLFADAIKFVFSEIIIPNGVNQTLYAISPVLVLIFAFLPMALIPISTIPTQGSILSVYHGIFYDTQIHQGILVPYFIEYNLIGIIALESLYPILVIFLAWNTNNRFAIVGSIREAYLSVSYDVLIIISTLALGLEYHTLDVAKIVTSGIPGFIANPIAAFVFLVAMLIGSSRFPFEIVEAETELVIGPYTEYSGFLFVLTMAGSYVANLVYAILFVDLFLGGWLPFTGFVGAIFTVFKAAIVVFFAVFLRAVYGRYRIDQALRGSWKYFFPLALASLLLGVVVGYLWIR | failed |
| MSSLKGHPKGLYLIFATSTAERFSYYGMRAIFILFLTQALLFDKEAAASIYGSYTGLVYLTPLIGGYIADKYWGIRRSVFWGAVMMAVGQFLMFMSASSLNNTDLAHWLMYGGLGFMILGNGCFKPTVSSLVGQLYEPGDKRLDAAYTIFYMGVNVGSFAAPLICGFLGDTGNPQDFKWGFLASGIMTLFTVVLFETQKNKYLFSPSGEPIGIVPDARREKKEDKAEHISHPKMDKRTKVRNIIIITALTVALIAFFSYAFSDDWISVGIFTACIVFPVLILLDGSLTKVERSRIFVIYIVAFFVIFFWAAYEQAGASLTLFASEQTDRSIFGWEMPASWFQSFNPLFVVILAYIMPGIWGFLNKRNMEPASPTKQAIGLLLLSLGYLFICFGVKDAIPGVKVSMIWLTGLYFIHTMGEIALSPIGLSMVNKLSPLRFASLMMGIWYLSTATANKFAGMLSGLYPEDGKVKSILGYQIATMYDFFMLFVIMSGVASLILFLLSKKLQKMMHGVE | failed |
| MNSGTLLGKASISFSRPVYIQSCASVVGPKEGDGPLKNCFDMICDDPMFGEKKWEAAESAMQKEAAVLAIGKAGLTPDDIRFVFAGDLLAQTIASSFGIAEMGIPFFGLYGACSTMGESLSLGAIAVSAGYGHHILCATSSHFATAEKEFRFPLGYGCQRPLSATWTVTGSAACILSPEAPHPSEIVGSSLLRSTLGSVAITGITTGKVIDFGFRDSLNMGGCMAPAACDTIYRNFEDFGRSVNDYDAVLTGDLGVVGRQILLDLLKEKNIDLSSVHQDCGLLIYDNQKQDTHSGGSGCGCAASVLAAYILPRVVSGFWKRVLFVPTGAMLSKVSFNEGESVAGIAHGVVIEHISKETEV | failed |
| SSPIRLSTSNLPMTLTTNTSSGAPNKAFNTSSVNSGNSFSRTTTSSTTTTTERIEIRAEGDGEVDTDSIRKRITERLRRSVSKTISNLAGTPVTNTEEGSRYSRSVSRSVYDDEKSSKRSYSTGEEDIDEEDELEEDQFRSFNVTRKSATPAEISCRQLKAPREFGGWLGAFLFLLLLPTAVYYLTWSCTARNACQFKHLNLGILLDVNYLTRQVFQPRVVGAFAAYQVVVFLLVALLPGRRVHLTRETYKFNCLAVSLTLLIASGVAEYLKYPVVTFVLRHYLRFCIFGLVGAFVAAAW | failed |
| MSDLVKIRDVSLSTPYVSVIGKITGIHKKEYESDGTTKSVYQGYIEDDTARIRISSFGKQLQDSDVVRIDNARVAQFNGYLSLSVGDSSRIESVNVNIPLEHHHHHH | not failed |
| MYIMNIFITDFYHRNDLLDKAEAMIANHWPAFMMGTSVDDSYWERLYDVPFSHYQFMAVLKTQTEEKVIGVINSIALPWQTNSLNDLPDEGWDRVFQLGMEAEEQQLPCHLISALSVTIDHHYRGKGIAQRLINTLKEHAKKQGYLGVAVPVRPTLKHCYPLHSFAEYCQWKNDNDEPFDPWIRTHWRL | failed |
| MKEICMLLVAVILWGTAIAPTKWALESIQPFTLLFIRLFFAGGICMIFSFKELQKSVVHKKVPWKRMSLLAFTGVAGYFMFTSYGISLTSGLHVSIIDAALPLVTILFSALFLKEEIRLNYWIGIILGAIGVLFITIPSKSANQEVSLIGDILILLSTFLFAFYTVLLKRPKQEQYLSNEVFTTLTLIIGAVILLPFALVEIFYYGLPKVETWKTVLSVIYLVIGATILAYWFWNKALERVSASVSGLYLNALPLISIITSIILLNESLTWRVIMGASLVLIGVGWADKQKLCNLLKGNKVENRDC | failed |
| MVADSFVYSFVSSPDLSVLVLLCVLLLTALRQVGSLRLQIWQVMTLGAFSVLLLGEISPQEALRAINIDVLLFLFGAFCVGEALNRSGYLAWIGGRIVSRAKNTDQLVLLVIFSTGLLSAVLMNDTLAIMGTPLVLRFSRKYGVSPKLMLFALAFGITTGSVMSPIGNPQNLLIAIDGNLDSPFVVFLSSLAVPTMINLVLVYAVLKLFFSREFGKPALIHTEELISDPELAEISKKALFLLLALITCKILLVEFLPAWDFSLSWIALFSASPILLSKRRTEVVKNIDWATLVFFVSMFVLMESVWISGTCQGLLYRMSPQLGSVPTILALSIGLSQLISNVPFVALYLPAMGSGVSQGQLMALAAGSTIAGNLLILGAASNVIILQNAEKEGETFSFMEFAKIGLLISFLNAIIYFIFL | failed |
| GDETGVMDSLLEALQSGAAFRRKRGPRQANRKAGCAVTSLLASELTKDDAMAAVPAKVSKNSETFPTILEEAKELVGRAS | failed |
| MADHSIQGKVALIAGGAKNLGGLIARDLAAHGARAIAIHYNSPASKADADATVAALQAAGAQAVALQGDLTTAAAVEKLYADALAAVGRPDIAINTVGKVLKKPFSEISEAEYDEMAAVNAKSAFFFLKEAGRHVNDHGKIVTLVTSLLGAFTPFYSAYAGTKAPVEHYTRAAAKEFGARGISVTAVGPGPMDTPFFYGQESPEAVAYHQSAAALSPHSPTGLTHIEDVVPFIRHLVSDGWWITGQTLLINGGYTTK | not failed |
| MAGLVQKFKQMWTPPEDEYDYDFEEMDMDDEEVMDEISSSSYEEEEAYQEPQRESRRSSAPQSGNKVVNIHAAAQLQVVLFKPERFGDETRSVADELIKMHTVVLNLENTSKDVSRRILDFLSGVAYANNGKIKRVSTATFIITPYNVDLTGDDLMDEIESSSMYL | failed |
| MNPIILALFDVSIFILLAEILSSLVQKYGLPKLIGELLAGMIIGPYALGSLLNQLLGFPLIGINSYIEFLAEFSVILLIFASGLEHGIAPIKSSGILGFLGATFGALLPFFAAYYFYISSFGLDSALILGTAMGATSLAAVASIIEEGKLKGKGINFMVSSAAADDVVDLLLLSVVIAILQGESTSVTSISLKIIALVVIWVVILVVSIILIPKITDRISDKYIEEFPLAVLFGLTLLMVSLGYSPIISAFVAGVAFANSVKNSKIKEISSTLLSVFGPLFFVYIGAEVNFLTLNLNTVILSLELTAIATIFKWLGIFPFALAYLRNAKAANTVALGMVPRGETGLVIASLGLSYNALNQEEFEGIVFMSIFTTLIGSALFKIYAKKHLVS | failed |
| MLPSRKTKRVFSCDFTPGRKRRRCVVVPSSVSPVPENTTGADLLDSIPDDLVISILCKLGSTSRCPADFINVLLTCKRLKGLAMNPIVLSRLSPKAIAVKAHNWSEYSHRFLKRCVDAGSLEACYTLGMIRFYCLQNRGNGASLMAKAAISSHAPALYSLAVIQFNGSGGSKNDKDLRAGVALCARAAFLGHVDALRELGHCLQDGYGVPQNVSEGRRFLVQANARELAAVLSSGIQARSTWLSLSQPPPPVVPNHGQQTCPLLSDFGCNVPAPETHPANRFLADWFAVRGGDCPGDGLRLCSHAGCGRPETRKHEFRRCSVCGVVNYCSRACQALDWKLRHKMDCAPVQRWLEEGDGGEGNVQIDGNGNGDNVLLPMS | failed |
| MLHVHILSWVLAIILFIATYLNYSKTQGASPYYKPLHMALRLFMLLTLISGFWELIEEFMAASNGEGGNHMLLTLKMLCGLAVIAFMEISIAKRKKQQTSHKFFWITIILIIITMAIGVILPWGPISKIFGIS | failed |
